Data from the nanobody polyreactivity screen of Harvey et al. (2022).

Experiment: yeast display, Sf9 membrane polyspecificity reagent, FACS + sequencing; frameworks hold sequencing errors
Summary of the method: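 Galactose-induced (36–48 hours) yeast carrying a synthetic nanobody display library were exposed to 10% biotinylated, detergent-solubilized Sf9 membrane reagent at 4 °C for 1 hour. FACS followed streptavidin microbead enrichment, using low and high (top ~1%) gates for expression (anti-HA) and reagent binding (streptavidin). Colony PCR, MiSeq 2 × 250 sequencing and CDR-length filtering followed. Labels for polyreactivity reflect the gate of origin.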

Row | Sequence | polyreactivity (PSR sort gate)
1 | QVQLVESAGGLVQAGGSLRLSSAASGRIFLYYAMGWYRQAPGKEREFVAAITYIGGSTYYADSVKGRFTISRDNAKNTVYLQMNSLKPEDTAVYWGEGTQVTVSS | low polyreactivity
2 | QVQLVESGGGLVQAGGRLRLRCAASGSTFSYYAMGWYRQAPGKERELVADISSGGTTNYADSVKGRFTISRDNAKNTVYLQMNSLKPEDTSVYYCNRRYSYYDGFDYWGQGTQVTVSS | low polyreactivity
3 | QVQLVESGGGLVQAGGRLRLSCAASGITIYGYAMGWYRQAPGKEREFVAAISYSGASTYYADSVKGRFTISRDNAKNTVYLQMNSLKPEDTAVYYCAARVRRSLYGYWGIGTQVTVSS | high polyreactivity
4 | QVQLVESGGGLVQAGGSLRLSCAASGLIFSVYGMGWYRQAPGKERELVAAISSRGGSTYYADSVKGRFTISRDLAKNTVYLQMNSLKQEDTAVYYCAARSNYRMDYWGQGTQVTVSS | high polyreactivity
5 | QVQLVESGGGLVQAGGSLRLSCAASGRTIWYNAMGWYRQAPGKERELVAVISSGAITYYADSVKGRFTFSRDNGKNTVYLQMNSLKPEDTAFYYCAARSYLSLIDYWGQGTQVNVSS | high polyreactivity
6 | QVQLVESGGGLVQAGGSLRLSCAASGITIVYYAMGWYRQAPGKERELVAAITRGGNTYYADSVKGRFTISRDNAKNTVYLQMNSLKPEDTAVYYCAAVGYYYSALDMDYWGQGTQVTVSS | low polyreactivity
7 | QVQLVESGGGLVQAGGSLRLSCAASRLTFRYYAMGWYRKAPGKERELVAAISSRGASTYYADSVKGRFTISRDNAKNTVYLQMNSLKPEDTAVYNCAVRTYVYHWSFSSLPYDYWGQGTQVTVSS | high polyreactivity
8 | QVQVVESGGGLVKAGGSLRLSCAASGGTFLINAMGWYRQAPGKERELVATITSGGTTYYADSVKGRFTISRDNAKNTVYLQMNSLKPEDTAVYYCATRGKGRYGYDSWGQGTQVTVSS | low polyreactivity
9 | QVQLVESGGGLVQAGGSLRISCAASGIIFRLNAMGWYRQAPGKERELVAAIRRRGGSTYNADSVKGRFTISRHNAKNTVYLQMNSLKPEDTAVYYGAKDPHGSDFGYWGQGTQVTVSS | low polyreactivity
10 | QVQLQESGGGLVQAGGSLRPSCEASGNISLNVYMCWYRQAPGKEREFVAGTADGATTNYADSVKGRFTISRDNAKNTVFLQMNSLKPEDTAVYDCIKDYGYVQLRFYGPGYYWGQGTQVTVSS | low polyreactivity
11 | QVQLVESGGGLVQAGGSLRLSCAASGRIFSGYVMGWYRQPPGKERELVAAISRSGGSTYYADSVKGRFTISRDNAKNTVYLQMNSLKPEDTAVYYCNADWYKRHYDYWGQGTQVTVSS | high polyreactivity
12 | QVQLLESGGGLVQAGGSLRLSCAASGSTFSYNAMGWYIQAPGKERELVAAIDRSVSTNYADSVKGRFTISRDNAKNTVYLQMNSLKPEDTEVYYCNARHPTDDIVIYDYWGQGTQVTVSS | low polyreactivity
13 | QVQLVESGGGLVQAGGSLRLSCAASGSIFDWNALGWYRQAPGKERELVASITGSGGGTNYADSLKGRFTISRDNAKNTVYFQMNSLNPEDTAVYFCNADGLNLDGHEYWGQATQVTVSS | low polyreactivity
14 | QVQLVESGGGLVQAGGSLRLSCAASGSTFGPNTMGWYRQAPGKERELVAAISRAGRTYYADSVKGRFTISRDNAKNTVYLQMNSLKPEDTAVYYCNAGRSYHWRAGGEYDYWGQGTQVTVSS | low polyreactivity
15 | QVQLVETGGGLVQAGGSLRLSCAASGSIFLYYAMGWYRQAHGKERELVAAITSGGSTNYADSVKGRFTISRDNAKNTVYLQMNSLKPEDTAVYYCAARHPYRFWGQGTKVTVSS | high polyreactivity
16 | QVQIVESGGGLVQAGGSLRLTCAASGYIFTYYAMGWYRQAPWKERDLVAAISGSDGNTYYADSVKGRFTISRDNAKNTVYLQMNSLKPEDTAVYYCAKSGGLTFRSQSYDYWGQGTQVTVSS | low polyreactivity

Row | Sequence | polyreactivity (PSR sort gate)
17 | QVQLVESGGGLVQAGGSLRLSCAASGFTCAWYTMGWYREAPGKERELVAAISLNGGSTYYADSVKGRFTISRDNAKNTVYLQMNRLKPEDTAVYYCAKGYRWPYYPYDYWGQGTQVTVSS | low polyreactivity
18 | QVQLVESGGGLVQAGGSLRLSCAASGLTFHRYAMGWYRQAPGKERELVAAISRSGVTTRYADSVKGRFTISRDNAKNTVYLQMNSLKPEDTAVYYCAAVYRVRKITYDYWGQGTQVTVSS | high polyreactivity
19 | QLQLVESGGGLVQAGGSLRLSCAASGSIFFSYAMGWYRQAPGKERELVAAIDYSGGGTYYADSVKGRFTISRDNAKNTVYLQMNSLKPEDTAVYYCNSDTEVWADTFISYRALNYWGQGTQVTVSS | low polyreactivity
20 | QVQLVESGGGLVQAGGSLRLSCAASGRIFNRNAMGWYRQAPGKERELVASISSGGRTNYADSVTGRFTISRDNAKNTDYLQMNSLKPEDTAVYYCAAKSPRILLDYWGQGTQVTVSS | low polyreactivity
21 | QDQLVESGGGLVQAGGSLRLSCAASGFIFYDNAMGWYRQAPGKERELVAAISAIGGSTYYADSVKGRFTISRDNAKNTVYLQMNSLKPEDTAVYYCAVPEILDPKYQNDYWGQGTQVTVSS | low polyreactivity
22 | QVQLVESGGGLVQAGGSLRLSCAASGITFGYYAMGWYRQAPGKEREMVAAISFTGASTYYADSVKGRFTISRDNAKNTVYLQMNSLKPEDTAVYYCAADPYVPYQDFLSGFDYWGQGTQVTVSS | low polyreactivity
23 | QVQLLESGGGLVQAGGSLRLSCAASRRIIYGYAMGWYRQAPGKERELVAAITATYYADSVKGRFTISRDNPKNTVYLLMNSLKAVDTAVYYCNAYLSPKQPLSPQDPTFEGGYWGQCTQVTVSS | low polyreactivity
24 | QDQLVESGGGLVQAGGSLRLSCAASGRTSIWNAMGWYRQAPGKERELVASISWSGGSTYYADSVKGRFTISRDNAKNTVYLQMNSLKPEDTAVYYCAKTAYFLVFNEHLHKKRYDSWGQGTQVTVSS | low polyreactivity
25 | QVQLVESGGGLVQAGGSLRLTCAASGYIFSTYAMGSYRQAPGKERELVASISENGGSTYYADSVKGRFTISRDNAKNTVYLQMNSLKPEDTAVDYCNADAYVDVDDGDYWGEGTQVTVSS | low polyreactivity
26 | QVQLVESGGGLVQAGGSLRLSCAASGITFYYNTMGWYRQAPGKERELVAAISSRSGSTYYADSVKGRFTISRDKAKNNVSLQMNCLKPEDTAVYYCAARRAAKYYWGQGTQVTVSS | high polyreactivity
27 | QVQLVESGGGLVQAGGSLRLSCAASGRTFAYYAMGWYRQAPGTERELVATINSAGCTYYADSVKGRFTISRDNAKNTVYLQMNSLKPEDTAVYYCNAAYKSQVRYRRYIYWGQGTQVTVSS | high polyreactivity
28 | QVQLVESRGGLVQARGSLRLSCAASGSTLFRYTKGWYRQAPGKERELVAAITRSGGNTFYADSVKGRFTISRDNSKNTVYLQMNSLKPEDTAVYYCAARARYVNCQGFDYWGQVTQVTVSS | high polyreactivity
29 | QVQLVESGGGLVQAGGSLRLSCAASGRIFPVYAMGWYRQAPGKEREFVAAIRGTGTSTYYADSVKGRFTISRDNAKNTVYLQMNSLKPEDTAVYYCAASAGYAYNYWGQGTQVTVSS | low polyreactivity
30 | QVPLVESGGGLVQAGGSLRLSCAASGFIFYANAMGWYRQAPGKERELVAAISWDGGRTYYADSVKGRFTISRDNAKNTVYLQMNSLKPDDTAVYSCNALATDLDYWGQGTQVTVSS | low polyreactivity
31 | QVQLVESGGGLVQAGGSLRLSCPASGSIFQYYAMGWYRQAPGKERELVAAISSGGRTNYADSVKGRFTISRDNAKNTVYLQMNSLKPEATAVYYCAAARYYYQVYRWEYDYWGQGTQVTVSS | high polyreactivity
32 | QVQLVETGGGLVQAGGSLRLSCADSGFIFRYYAMGRYRQAPGKERELVAAISSRGASTYYADSVKGRFTISRDNEKNTVYLQMNRLKPEDTAVYDCNARFNRASEMDYWGQGTQVTVSS | high polyreactivity
